Starred links: 1 amine or outer side, 2 acyl side, 3 side chain; linkers in the order of their positions; H or OH if unused. Non-standard residues stand in square brackets, D forms with d. Groups on a side chain read outwards from the residue. No end group written: not given here. *: point of attachment. γGlu = O=C(O)[C@H](CCC(=O)[*:2])N[*:1]; Palmitoyl = CCCCCCCCCCCCCCCC(=O)*; αMeF = C[C@](N)(Cc1ccccc1)C(=O)O; αMeK = C[C@](N)(CCCCN)C(=O)O; αMeS = C[C@](N)(CO)C(=O)O; Aib = CC(C)(N)C(=O)O
T1: glucose-dependent insulinotropic peptide (gastric inhibitory polypeptide) receptor (human, UniProt P48546 22-466)
T1 sequence (looked up): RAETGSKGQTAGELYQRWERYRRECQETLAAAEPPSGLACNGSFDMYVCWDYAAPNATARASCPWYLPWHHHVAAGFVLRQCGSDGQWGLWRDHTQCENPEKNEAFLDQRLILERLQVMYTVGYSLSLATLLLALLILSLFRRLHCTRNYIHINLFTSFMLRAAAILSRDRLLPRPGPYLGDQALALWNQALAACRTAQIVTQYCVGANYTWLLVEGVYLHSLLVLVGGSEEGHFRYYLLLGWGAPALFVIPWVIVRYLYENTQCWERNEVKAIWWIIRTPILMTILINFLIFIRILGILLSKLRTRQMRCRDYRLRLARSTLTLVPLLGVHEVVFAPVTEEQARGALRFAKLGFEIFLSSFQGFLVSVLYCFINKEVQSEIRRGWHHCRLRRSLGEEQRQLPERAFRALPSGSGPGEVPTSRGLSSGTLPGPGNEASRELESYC

B1: SEQ ID NO 75 (peptide)
peptide: H[Aib]EGS[αMeF]TSDV[αMeS]S[αMeF]LEGEAA[αMeK]E[αMeF]IAK([γGlu-Palmitoyl])VV[αMeK]GG-NH2
modifications: N-terminus assumed
SMILES: CCCCCCCCCCCCCCCC(=O)N[C@@H](CCC(=O)NCCCC[C@H](NC(=O)[C@H](C)NC(=O)[C@@H](NC(=O)[C@](C)(Cc1ccccc1)NC(=O)[C@H](CCC(=O)O)NC(=O)[C@](C)(CCCCN)NC(=O)[C@H](C)NC(=O)[C@H](C)NC(=O)[C@H](CCC(=O)O)NC(=O)CNC(=O)[C@H](CCC(=O)O)NC(=O)[C@H](CC(C)C)NC(=O)[C@](C)(Cc1ccccc1)NC(=O)[C@H](CO)NC(=O)[C@](C)(CO)NC(=O)[C@@H](NC(=O)[C@H](CC(=O)O)NC(=O)[C@H](CO)NC(=O)[C@@H](NC(=O)[C@](C)(Cc1ccccc1)NC(=O)[C@H](CO)NC(=O)CNC(=O)[C@H](CCC(=O)O)NC(=O)C(C)(C)NC(=O)[C@@H](N)Cc1c[nH]cn1)[C@@H](C)O)C(C)C)[C@@H](C)CC)C(=O)N[C@H](C(=O)N[C@H](C(=O)N[C@@](C)(CCCCN)C(=O)NCC(=O)NCC(N)=O)C(C)C)C(C)C)C(=O)O
B2: SEQ ID NO 10 (peptide)
peptide: H[Aib]EGS[αMeF]TSDVSS[αMeF]VEGEAA[αMeK]E[αMeF]IA[αMeF]VV[αMeK]GG-NH2
modifications: N-terminus assumed
SMILES: CC[C@H](C)[C@H](NC(=O)[C@](C)(Cc1ccccc1)NC(=O)[C@H](CCC(=O)O)NC(=O)[C@](C)(CCCCN)NC(=O)[C@H](C)NC(=O)[C@H](C)NC(=O)[C@H](CCC(=O)O)NC(=O)CNC(=O)[C@H](CCC(=O)O)NC(=O)[C@@H](NC(=O)[C@](C)(Cc1ccccc1)NC(=O)[C@H](CO)NC(=O)[C@H](CO)NC(=O)[C@@H](NC(=O)[C@H](CC(=O)O)NC(=O)[C@H](CO)NC(=O)[C@@H](NC(=O)[C@](C)(Cc1ccccc1)NC(=O)[C@H](CO)NC(=O)CNC(=O)[C@H](CCC(=O)O)NC(=O)C(C)(C)NC(=O)[C@@H](N)Cc1c[nH]cn1)[C@@H](C)O)C(C)C)C(C)C)C(=O)N[C@@H](C)C(=O)N[C@@](C)(Cc1ccccc1)C(=O)N[C@H](C(=O)N[C@H](C(=O)N[C@@](C)(CCCCN)C(=O)NCC(=O)NCC(N)=O)C(C)C)C(C)C
B3: SEQ ID NO 76 (peptide)
peptide: H[Aib]EGS[αMeF]TSDV[αMeS]S[αMeF]LEGEAA[αMeK]E[αMeF]IK([γGlu-Palmitoyl])[αMeF]VV[αMeK]GG-NH2
modifications: N-terminus assumed
SMILES: CCCCCCCCCCCCCCCC(=O)N[C@@H](CCC(=O)NCCCC[C@H](NC(=O)[C@@H](NC(=O)[C@](C)(Cc1ccccc1)NC(=O)[C@H](CCC(=O)O)NC(=O)[C@](C)(CCCCN)NC(=O)[C@H](C)NC(=O)[C@H](C)NC(=O)[C@H](CCC(=O)O)NC(=O)CNC(=O)[C@H](CCC(=O)O)NC(=O)[C@H](CC(C)C)NC(=O)[C@](C)(Cc1ccccc1)NC(=O)[C@H](CO)NC(=O)[C@](C)(CO)NC(=O)[C@@H](NC(=O)[C@H](CC(=O)O)NC(=O)[C@H](CO)NC(=O)[C@@H](NC(=O)[C@](C)(Cc1ccccc1)NC(=O)[C@H](CO)NC(=O)CNC(=O)[C@H](CCC(=O)O)NC(=O)C(C)(C)NC(=O)[C@@H](N)Cc1c[nH]cn1)[C@@H](C)O)C(C)C)[C@@H](C)CC)C(=O)N[C@@](C)(Cc1ccccc1)C(=O)N[C@H](C(=O)N[C@H](C(=O)N[C@@](C)(CCCCN)C(=O)NCC(=O)NCC(N)=O)C(C)C)C(C)C)C(=O)O
B4: SEQ ID NO 77 (peptide)
peptide: H[Aib]EGS[αMeF]TSDV[αMeS]S[αMeF]LEGEAA[αMeK]E[αMeF]K([γGlu-Palmitoyl])A[αMeF]VV[αMeK]GG-NH2
modifications: N-terminus assumed
SMILES: CCCCCCCCCCCCCCCC(=O)N[C@@H](CCC(=O)NCCCC[C@H](NC(=O)[C@](C)(Cc1ccccc1)NC(=O)[C@H](CCC(=O)O)NC(=O)[C@](C)(CCCCN)NC(=O)[C@H](C)NC(=O)[C@H](C)NC(=O)[C@H](CCC(=O)O)NC(=O)CNC(=O)[C@H](CCC(=O)O)NC(=O)[C@H](CC(C)C)NC(=O)[C@](C)(Cc1ccccc1)NC(=O)[C@H](CO)NC(=O)[C@](C)(CO)NC(=O)[C@@H](NC(=O)[C@H](CC(=O)O)NC(=O)[C@H](CO)NC(=O)[C@@H](NC(=O)[C@](C)(Cc1ccccc1)NC(=O)[C@H](CO)NC(=O)CNC(=O)[C@H](CCC(=O)O)NC(=O)C(C)(C)NC(=O)[C@@H](N)Cc1c[nH]cn1)[C@@H](C)O)C(C)C)C(=O)N[C@@H](C)C(=O)N[C@@](C)(Cc1ccccc1)C(=O)N[C@H](C(=O)N[C@H](C(=O)N[C@@](C)(CCCCN)C(=O)NCC(=O)NCC(N)=O)C(C)C)C(C)C)C(=O)O
B5: SEQ ID NO 11 (peptide)
peptide: H[Aib]EGS[αMeF]TSDVSS[αMeF]LEGEAA[αMeK]E[αMeF]VA[αMeF]VV[αMeK]GG-NH2
modifications: N-terminus assumed
SMILES: CC(C)C[C@H](NC(=O)[C@](C)(Cc1ccccc1)NC(=O)[C@H](CO)NC(=O)[C@H](CO)NC(=O)[C@@H](NC(=O)[C@H](CC(=O)O)NC(=O)[C@H](CO)NC(=O)[C@@H](NC(=O)[C@](C)(Cc1ccccc1)NC(=O)[C@H](CO)NC(=O)CNC(=O)[C@H](CCC(=O)O)NC(=O)C(C)(C)NC(=O)[C@@H](N)Cc1c[nH]cn1)[C@@H](C)O)C(C)C)C(=O)N[C@@H](CCC(=O)O)C(=O)NCC(=O)N[C@@H](CCC(=O)O)C(=O)N[C@@H](C)C(=O)N[C@@H](C)C(=O)N[C@@](C)(CCCCN)C(=O)N[C@@H](CCC(=O)O)C(=O)N[C@@](C)(Cc1ccccc1)C(=O)N[C@H](C(=O)N[C@@H](C)C(=O)N[C@@](C)(Cc1ccccc1)C(=O)N[C@H](C(=O)N[C@H](C(=O)N[C@@](C)(CCCCN)C(=O)NCC(=O)NCC(N)=O)C(C)C)C(C)C)C(C)C
B6: SEQ ID NO 12 (peptide)
peptide: H[Aib]EGS[αMeF]SSEVSS[αMeF]VEGEAA[αMeK]E[αMeF]VA[αMeF]VV[αMeK]GG-NH2
modifications: N-terminus assumed
SMILES: CC(C)[C@H](NC(=O)[C@H](CCC(=O)O)NC(=O)[C@H](CO)NC(=O)[C@H](CO)NC(=O)[C@](C)(Cc1ccccc1)NC(=O)[C@H](CO)NC(=O)CNC(=O)[C@H](CCC(=O)O)NC(=O)C(C)(C)NC(=O)[C@@H](N)Cc1c[nH]cn1)C(=O)N[C@@H](CO)C(=O)N[C@@H](CO)C(=O)N[C@@](C)(Cc1ccccc1)C(=O)N[C@H](C(=O)N[C@@H](CCC(=O)O)C(=O)NCC(=O)N[C@@H](CCC(=O)O)C(=O)N[C@@H](C)C(=O)N[C@@H](C)C(=O)N[C@@](C)(CCCCN)C(=O)N[C@@H](CCC(=O)O)C(=O)N[C@@](C)(Cc1ccccc1)C(=O)N[C@H](C(=O)N[C@@H](C)C(=O)N[C@@](C)(Cc1ccccc1)C(=O)N[C@H](C(=O)N[C@H](C(=O)N[C@@](C)(CCCCN)C(=O)NCC(=O)NCC(N)=O)C(C)C)C(C)C)C(C)C)C(C)C
B7: SEQ ID NO 13 (peptide)
peptide: H[Aib]QGS[αMeF]TSDK([γGlu-Palmitoyl])SE[αMeF]LDSERARD[αMeF]VA[αMeF]LEAGG-NH2
modifications: N-terminus assumed
SMILES: CCCCCCCCCCCCCCCC(=O)N[C@@H](CCC(=O)NCCCC[C@H](NC(=O)[C@H](CC(=O)O)NC(=O)[C@H](CO)NC(=O)[C@@H](NC(=O)[C@](C)(Cc1ccccc1)NC(=O)[C@H](CO)NC(=O)CNC(=O)[C@H](CCC(N)=O)NC(=O)C(C)(C)NC(=O)[C@@H](N)Cc1c[nH]cn1)[C@@H](C)O)C(=O)N[C@@H](CO)C(=O)N[C@@H](CCC(=O)O)C(=O)N[C@@](C)(Cc1ccccc1)C(=O)N[C@@H](CC(C)C)C(=O)N[C@@H](CC(=O)O)C(=O)N[C@@H](CO)C(=O)N[C@@H](CCC(=O)O)C(=O)N[C@@H](CCCNC(=N)N)C(=O)N[C@@H](C)C(=O)N[C@@H](CCCNC(=N)N)C(=O)N[C@@H](CC(=O)O)C(=O)N[C@@](C)(Cc1ccccc1)C(=O)N[C@H](C(=O)N[C@@H](C)C(=O)N[C@@](C)(Cc1ccccc1)C(=O)N[C@@H](CC(C)C)C(=O)N[C@@H](CCC(=O)O)C(=O)N[C@@H](C)C(=O)NCC(=O)NCC(N)=O)C(C)C)C(=O)O

Molecular target: T1, glucose-dependent insulinotropic …
Assay: cell-based or functional assay

Row | Binder | Primary assay EC50 (cAMP), n1 [nM] | Primary assay EC50 (cAMP), n2 [nM]
1 | B1 | 28 | 28
2 | B2 | 100 | 100
3 | B3 | 27 | 27
4 | B4 | 28 | 28
5 | B5 | 100 | 100
6 | B6 | 45 | 45
7 | B7 | 0.69 | 0.63

Molecular target: glucagon receptor (human, UniProt P47871 26-477)
Assay: cell-based or functional assay

Sequence of glucagon receptor (P47871 26-477): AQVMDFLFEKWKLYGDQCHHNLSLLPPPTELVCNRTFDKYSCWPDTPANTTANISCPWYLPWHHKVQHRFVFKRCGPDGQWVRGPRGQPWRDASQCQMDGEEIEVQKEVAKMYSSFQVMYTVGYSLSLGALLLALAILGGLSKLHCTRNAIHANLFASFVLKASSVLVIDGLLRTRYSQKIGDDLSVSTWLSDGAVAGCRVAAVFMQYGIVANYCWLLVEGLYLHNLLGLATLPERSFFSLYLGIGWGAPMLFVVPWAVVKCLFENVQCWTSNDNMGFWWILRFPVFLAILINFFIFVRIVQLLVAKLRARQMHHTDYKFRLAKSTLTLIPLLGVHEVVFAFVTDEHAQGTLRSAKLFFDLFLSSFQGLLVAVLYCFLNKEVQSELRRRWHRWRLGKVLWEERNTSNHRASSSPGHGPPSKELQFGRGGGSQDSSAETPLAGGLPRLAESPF

Row | Binder | Primary assay EC50 (cAMP), n1 [nM] | Primary assay EC50 (cAMP), n2 [nM]
8 | B1 | 28 | 28
9 | B2 | 100 | 100
10 | B3 | 27 | 27
11 | B4 | 28 | 28
12 | B5 | 100 | 100
13 | B6 | 10 | 13
14 | B7 | 7.6 | 4.1

Molecular target: GLP-1 receptor (human, UniProt P43220 24-463)
Assay: cell-based or functional assay

Row | Binder | Primary assay EC50 (cAMP), Mean pM GLP-1R [pM] | Primary assay EC50 (cAMP), n1 [nM] | Primary assay EC50 (cAMP), n2 [nM]
15 | B1 | 1.7 | 0.002 | 0.0014
16 | B2 | 90 | 0.087 | 0.093
17 | B3 | 7.2 | 0.0084 | 0.006
18 | B4 | 1860 | 1.9 | 1.8
19 | B5 | 32 | 0.032 | 0.032
20 | B6 | 2100 | 2.1 | 2.1
21 | B7 | 16 | 0.022 | 0.0096

From patent publication US20200079833A1 (AstraZeneca / MedImmune, published 2020)
